Measurements: patent US20010044102

Tested on: c-Myc (pM21 expression), P01106-1
Assay: cell_activity
Conditions: luciferase, NIH 3T3, SV40 minimal promoter

Chain of c-Myc (pM21 expression), P01106-1 (P01106 16-454): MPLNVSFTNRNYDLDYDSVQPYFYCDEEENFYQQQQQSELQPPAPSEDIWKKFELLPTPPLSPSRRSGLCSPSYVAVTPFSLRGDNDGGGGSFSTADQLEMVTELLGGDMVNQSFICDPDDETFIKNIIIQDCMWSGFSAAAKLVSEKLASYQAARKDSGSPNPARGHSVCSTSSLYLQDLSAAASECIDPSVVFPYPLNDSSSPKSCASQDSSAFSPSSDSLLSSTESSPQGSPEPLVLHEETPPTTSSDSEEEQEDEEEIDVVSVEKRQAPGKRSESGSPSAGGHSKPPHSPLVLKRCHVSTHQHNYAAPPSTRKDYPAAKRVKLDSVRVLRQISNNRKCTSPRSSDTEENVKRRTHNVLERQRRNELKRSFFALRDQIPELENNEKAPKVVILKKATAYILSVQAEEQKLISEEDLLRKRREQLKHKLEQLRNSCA

**Q.** For “cdc25A 2.5 kb KpnI/HindIII fragment (MB2+MB3) luciferase reporter”, which activity is on record?
**A.** 5 fold
